The record followed here is US20240383986A1 (OXFORD UNIVERSITY INNOVATION, published 2024).

In assay [1] the target is human CD1a expressed on cells (with human β2M) (human) (UniProt P06126).
Assay [2] shares this target. The experiment in a line: flow cytometry of ear skin cells of a CD1a transgenic mouse given isotype control (panel 'CD1a : iso'), SK9 staining; the WT mouse panel prints 1.30.
The target is the same in assay [3]. Put plainly: flow cytometry of ear skin cells of a CD1a transgenic mouse given antibody 116 100 µg i.p. on days 0, 2 and 4 (panel 'CD1a : OX116'), SK9 staining on day 5. (Flow cytometry measures light scatter and fluorescence of single cells or particles in a stream.)
For assay [4] the target is unchanged. The experiment in a line: flow cytometry of ear skin cells of a CD1a transgenic mouse given isotype control (row 'CD1a : iso'), HI149 staining; the WT mouse panel prints 0.
Assay [5] has the same target. Put plainly: flow cytometry of ear skin cells of a CD1a transgenic mouse given antibody 116 100 µg i.p. on days 0, 2 and 4 (row 'CD1a : OX116'), HI149 staining on day 5; the cloud lies on the lower edge of the gate.
Assay [6] addresses human CD1a expressed on cells (with human β2M) (human, UniProt P06126 17-327; P61769 21-119). Put plainly: cell-based or functional assay.
For assay [7], the target named is T1, human CD1b expressed on HEK-293 cells (with human β2M) (human, UniProt P29016 18-333; P61769 21-119).
T1 construct: whole, on cells; also called HEK-CD1b
The experiment in a line: flow cytometry, transfected HEK-293 cells.

The target in assay [8] is T2, human CD1c expressed on HEK-293 cells (with human β2M) (human, UniProt P29017 18-333; P61769 21-119).
T2 construct: whole, on cells; also called HEK-CD1c
Put plainly: flow cytometry, transfected HEK-293 cells.

Assay [9] addresses T3, human CD1d expressed on HEK-293 cells (with human β2M) (human, UniProt P15813 20-335; P61769 21-119).
T3 construct: whole, on cells; also called HEK-CD1d
Put plainly: flow cytometry, transfected HEK-293 cells.

Numbering of substitutions follows the chain as printed.

With OKT6 (antibody), the IC50 of inhibition of the polyclonal T cell IFNγ ELISpot response to CD1a-K562 (n=6 donors) in assay [1] is 1.97 µg/mL.

In turn, SK9 (antibody) had an IC50 of inhibition of the polyclonal T cell IFNγ ELISpot response to CD1a-K562 (n=6 donors) in assay [1] of 6960 µg/mL. The CD1a+ gate (percent of plotted cells) in assay [2] was found to be 84.9%; in assay [3] it was 87.4%.

Turning to HI149 (antibody), the IC50 of inhibition of the polyclonal T cell IFNγ ELISpot response to CD1a-K562 (n=6 donors) in [1] was determined as 1.14 µg/mL. Moreover, the CD1a+ gate (percent of plotted cells) in assay [4] was found to be 82.2%; in [5], 46.6%.

B1: 116 (VR12117) (antibody, V domains shown)
VH: QSVEESGGRLVTPGTPLTLTCTVSGFSLSNYAMSWVRQAPGKGLEWIGIIYTTGFTYYASWVKGRFTISKTSTTVDLKITSPTTEDTATYFCARGLATYVSPPTRLDLWGQGTLVTVSS
VL: AQVLTQTPSPVSAAVGGTVTINCQASQSIYNSKNLAWYQQKPGQPPKLLIYSASTLASGVPSRFKGSGSGTQFTLTISDLECDDAATYYCQGEFSCSSVDCATFGGGTEVVVK
notes: also called OX116
As for B1, in assay [6], the “IC50 of inhibition of the polyclonal T cell IFNγ ELISpot response to CD1a-K562 (n=6 donors)” value came out at 0.141 µg/mL. Also, the binding result in assay [7], in [8] and in assay [9] was “no binding (tested: up to 100 µg/ml)” in each case.

B2: 111 (VR12113) (antibody, V domains shown)
VH: QSVEESGGRLVTPGTPLTLTCTASGFSLSTYAMSWVRQAPGKGLEWIGIISSSGSTYYASWAKGRFTISKTSTTVDLKITSPTTEDTATYFCARETWYWLDLWGQGTLVTVSS
VL: AVEMTQTPASVSAAVGGTVTINCQASEDIYSNLAWYQQKPGQPPKLLIYGASTLASGVPSRFKGSGSGTEYTLTISGVQCDDAATYYCQCAYDSSSYGTPFGGGTEVVVK
On to B2, for which the “IC50 of inhibition of the polyclonal T cell IFNγ ELISpot response to CD1a-K562 (n=6 donors)” value in [6] was 1.04 µg/mL. In addition, the binding result in assay [7], in assay [8] and in assay [9] was “no binding (tested: up to 100 µg/ml)” each time.

B3: 77A (VR11851) (antibody, V domains shown)
VH: QSVEESGGRLVTPGTPLTLTCTVSGFSLSSYAMSWVRQAPGKGLEWIGIISSSGTTYYASWAKGRFTISKTSTTVDLKITSPTTEDTATYFCARVDYYSSGWGGLWGPGTLVTVSS
VL: B2 VL with V11M, N22K, A91T, S94T, T99N, P100T, V107M, K110E
With B3, in assay [6], the “IC50 of inhibition of the polyclonal T cell IFNγ ELISpot response to CD1a-K562 (n=6 donors); table row '77'” value is 0.181 µg/mL. Also, the binding result in assay [7], in assay [8] and in assay [9] was “no binding (tested: up to 100 µg/ml)” in each case.

B4: 110 (VR12112) (antibody, V domains shown)
VH: QSVEESGGRLVTPGTPLTLTCTVSGFSLSSYAMIWVRQAPGKGLEWIGIINSSDNTHYATWAKGRFTISKTSTTVDLKITSPTTEDTATYFCARDPYDYGYGWYFDLWGPGTLVTVSS
VL: AQVLTQTPSPVSAAVGGTVTINCQASQSVFNNKNLAWYQQKPGQPPKLLIYKASTLASGVSSRFKGSGSGTQFALTISGVQCDDAATYYCQGEFSCSSTDCVTFGGGTEVVVK
Take B4: in assay [6], the “IC50 of inhibition of the polyclonal T cell IFNγ ELISpot response to CD1a-K562 (n=6 donors)” value was found to be 0.155 µg/mL. The binding result in assay [7], in [8] and in assay [9] was “no binding (tested: up to 100 µg/ml)” in each case.
